In test [1] the target is T1, human CLD18A1 (human, UniProt P56856 1-261).
T1 construct: Expressed on transfected HEK293 or CHO cells; also called claudin 18 splice variant 1; NP_057453
The experiment in a line: flow cytometry on HEK293-CLD18A1 cells. In general terms: A flow cytometer gives signals particle by particle.

Test [2] deals with T1, human CLD18A1. The experiment in a line: summary of Example 10.
In test [3] the target is T2, murine CLD18A1 (mouse, UniProt P56857 1-264).
T2 construct: Transiently expressed on HEK293 cells; also called mouse CLD18A1; NP_062789
The experiment in a line: overview table of murine antibodies.

In test [4] the target is T1, human CLD18A1. The experiment in a line: overview table of murine antibodies.
In test [5] the target is T1, human CLD18A1. The experiment in a line: overview table of chimeric antibodies.
Test [6] addresses T2, murine CLD18A1. The experiment in a line: summary of Example 10.

B1: ch-43A11 (antibody, V domains shown)
VH: QVQLQQSGAELMKPGASVKISCKATGYTFSSYWIEWVKQRPGHGLEWIGEILPGSGSTNYNEKFKGKATFTADTSSNTAYMQLSSLTSEDSAVYYCARYDYPWFAYWGQGTLVTVSA
VL: QIVLTQSPAIMSASPGEKVTITCSASSSVSYMHWFQQKPGTSPKLWIYSTSNLASGVPARFSGSGSGTSYSLTISRMEAEDAATYYCQQRSSYPPTFGGGTKLEIKR
notes: Mouse/human chimeric, human gamma-1 and kappa constant regions; also called chimeric 43A11
Consider B1, for which the binding result in test [1] is listed as “no binding”.

B2: 43A11 (antibody, IgG2a, V domains shown)
VH: QVQLQQSGAELMKPGASVKISCKATGYTFSSYWIEWVKQRPGHGLEWIGEILPGSGSTNYNEKFKGKATFTADTSSNTAYMQLSSLTSEDSAVYYCARYDYPWFAYWGQGTLVTVSA
VL: QIVLTQSPAIMSASPGEKVTITCSASSSVSYMHWFQQKPGTSPKLWIYSTSNLASGVPARFSGSGSGTSYSLTISRMEAEDAATYYCQQRSSYPPTFGGGTKLEIK
notes: mouse monoclonal IgG2a, kappa; also called 182-D1106-062; DSM ACC2742
In the case of B2, the binding result in test [2] is recorded as “no binding”.

B3: 163E12 (antibody, IgG3, V domains shown)
VH: QIQLVQSGPELKKPGETVKISCKASGYTFTNYGMNWVKQAPGKGLKWMGWINTNTGEPTYAEEFKGRFAFSLETSASTAYLQINNLKNEDTATYFCARLGFGNAMDYWGQGTSVTVSS
VL: DIVMTQSPSSLTVTAGEKVTMSCKSSQSLLNSGNQKNYLTWYQQKPGQPPKLLIYWASTRESGVPDRFTGSGSGTDFTLTISSVQAEDLAVYYCQNDYSYPLTFGAGTKLELK
notes: mouse monoclonal IgG3, kappa; also called 182-D1106-294; DSM ACC2809
On to B3, for which the binding result in test [3] and in test [4] was “no binding” throughout.

B4: ch-163E12 (antibody, V domains shown)
VH: QIQLVQSGPELKKPGETVKISCKASGYTFTNYGMNWVKQAPGKGLKWMGWINTNTGEPTYAEEFKGRFAFSLETSASTAYLQINNLKNEDTATYFCARLGFGNAMDYWGQGTSVTVSS
VL: DIVMTQSPSSLTVTAGEKVTMSCKSSQSLLNSGNQKNYLTWYQQKPGQPPKLLIYWASTRESGVPDRFTGSGSGTDFTLTISSVQAEDLAVYYCQNDYSYPLTFGAGTKLELKR
notes: Mouse/human chimeric, human gamma-1 and kappa constant regions; also called chimeric 163E12
Regarding B4, in test [5], the binding result is recorded as “no binding”.

B5: 125E1 (antibody, IgG2a, V domains shown)
VH: QVQLQQSGAELARPGASVKLSCKASGYTFTDYYINWVKQRTGQGLEWIGEIYPGSGNTYYNEKFKGKATLTADKSSSTAYMQLSSLTSEDSAVYFCARSYGAFDYWGQGTTLTVSS
VL: DIVMTQSQKFMSTSVGDRVSITCKASQNVRTAVAWYQQKPGQSPKALIYLASNRHTGVPDRFTGSGSGTDFTLTISNVQSEDLADYFCLQHWNYPLTFGGGTKLEIK
notes: mouse monoclonal IgG2a, kappa; also called 182-D1106-279; DSM ACC2808
For B5, the binding result in test [3] and in test [4] was “no binding” in each case.

B6: ch-125E1 (antibody, V domains shown)
VH: QVQLQQSGAELARPGASVKLSCKASGYTFTDYYINWVKQRTGQGLEWIGEIYPGSGNTYYNEKFKGKATLTADKSSSTAYMQLSSLTSEDSAVYFCARSYGAFDYWGQGTTLTVSS
VL: DIVMTQSQKFMSTSVGDRVSITCKASQNVRTAVAWYQQKPGQSPKALIYLASNRHTGVPDRFTGSGSGTDFTLTISNVQSEDLADYFCLQHWNYPLTFGGGTKLEIKR
notes: Mouse/human chimeric, human gamma-1 and kappa constant regions; also called chimeric 125E1
For B6, the binding result in test [5] is on record as “no binding”.

B7: ch-166E2 (antibody, V domains shown)
VH: QVQLQQSGPELVKPGASVKMSCKASGYTFTDYVISWVKQRTGQGLEWIGEIYPGSGSTYYNEKFKGKATLTADKSSNTAYMQLSSLTSEDSAVYFCARGVLLRAMDYWGQGTSVTVSS
VL: DIVMSQSPSSLAVSAGEKVTMSCKSSQSLLNSRTRKNYLAWYQQKPGQSPKLLIYWASTRESGVPDRFTGSGSGTDFTLTISSVQAEDLAVYYCKQSYNLYTFGGGTKLEIKR
notes: Mouse/human chimeric, human gamma-1 and kappa constant regions; also called chimeric 166E2
B7: in test [1], the binding result is “no binding”.

B8: 166E2 (antibody, IgG3, V domains shown)
VH: QVQLQQSGPELVKPGASVKMSCKASGYTFTDYVISWVKQRTGQGLEWIGEIYPGSGSTYYNEKFKGKATLTADKSSNTAYMQLSSLTSEDSAVYFCARGVLLRAMDYWGQGTSVTVSS
VL: DIVMSQSPSSLAVSAGEKVTMSCKSSQSLLNSRTRKNYLAWYQQKPGQSPKLLIYWASTRESGVPDRFTGSGSGTDFTLTISSVQAEDLAVYYCKQSYNLYTFGGGTKLEIK
notes: mouse monoclonal IgG3, kappa; also called 182-D1106-308
Consider B8, for which the binding result in test [6] and in test [2] was “no binding” each time.

Values taken from US20240117022A1 (GANYMED PHARMACEUTICALS, published 2024).
